Measured values published in IntAct's records for PubMed 15933719.

B1: Rab-interacting lysosomal protein (Homo sapiens), Q96NA2 (parent)
chain: MEPRRAAPGVPGWGSREAAGSASAAELVYHLAGALGTELQDLARRFGPEAAAGLVPLVVRALELLEQAAVGPAPDSLQVSAQPAEQELRRLREENERLRRELRAGPQEERALLRQLKEVTDRQRDELRAHNRDLRQRGQETEALQEQLQRLLLVNAELRHKLAAMQTQLRAAQDRERERQQPGEAATPQAKERARGQAGRPGHQHGQEPEWATAGAGAPGNPEDPAEAAQQLGRPSEAGQCRFSREEFEQILQERNELKAKVFLLKEELAYFQRELLTDHRVPGLLLEAMKVAVRKQRKKIKAKMLGTPEEAESSEDEAGPWILLSDDKGDHPPPPESKIQSFFGLWYRGKAESSEDETSSPAPSKLGGEEEAQPQSPAPDPPCSALHEHLCLGASAAPEA

Variants of: B1
Settings: with rab7a_human RAB7A
For MEPRRAAPGVPGWGSREAAGSASAAELVYHLAGALGTELQDLARRFGPEAAAGLVPLVVRALELLEQAAVGPAPDSLQVSAQPAEQELRRLREENERLRRELRAGPQEERALLRQLKEVTDRQRDELRAHNRDLRQRGQETEALQEQLQRLLLVNAELRHKLAAMQTQLRAAQDRERERQQPGEAATPQAKERARGQAGRPGHQHGQEPEWATAGAGAPGNPEDPAEAAQQLGRPSEAGQCRFSREEFEQALQERNELKAKVFLLKEELAYFQRELLTDHRVPGLLLEAMKVAVRKQRKKIKAKMLGTPEEAESSEDEAGPWILLSDDKGDHPPPPESKIQSFFGLWYRGKAESSEDETSSPAPSKLGGEEEAQPQSPAPDPPCSALHEHLCLGASAAPEA [I251A], the “effect of a mutation on the interaction” value was “disrupting interaction strength”. With MEPRRAAPGVPGWGSREAAGSASAAELVYHLAGALGTELQDLARRFGPEAAAGLVPLVVRALELLEQAAVGPAPDSLQVSAQPAEQELRRLREENERLRRELRAGPQEERALLRQLKEVTDRQRDELRAHNRDLRQRGQETEALQEQLQRLLLVNAELRHKLAAMQTQLRAAQDRERERQQPGEAATPQAKERARGQAGRPGHQHGQEPEWATAGAGAPGNPEDPAEAAQQLGRPSEAGQCRFSREEFEQIAQERNELKAKVFLLKEELAYFQRELLTDHRVPGLLLEAMKVAVRKQRKKIKAKMLGTPEEAESSEDEAGPWILLSDDKGDHPPPPESKIQSFFGLWYRGKAESSEDETSSPAPSKLGGEEEAQPQSPAPDPPCSALHEHLCLGASAAPEA [L252A] the “effect of a mutation on the interaction” value was “disrupting interaction strength”. For MEPRRAAPGVPGWGSREAAGSASAAELVYHLAGALGTELQDLARRFGPEAAAGLVPLVVRALELLEQAAVGPAPDSLQVSAQPAEQELRRLREENERLRRELRAGPQEERALLRQLKEVTDRQRDELRAHNRDLRQRGQETEALQEQLQRLLLVNAELRHKLAAMQTQLRAAQDRERERQQPGEAATPQAKERARGQAGRPGHQHGQEPEWATAGAGAPGNPEDPAEAAQQLGRPSEAGQCRFSREEFEQILQEANELKAKVFLLKEELAYFQRELLTDHRVPGLLLEAMKVAVRKQRKKIKAKMLGTPEEAESSEDEAGPWILLSDDKGDHPPPPESKIQSFFGLWYRGKAESSEDETSSPAPSKLGGEEEAQPQSPAPDPPCSALHEHLCLGASAAPEA [R255A], the “effect of a mutation on the interaction” value was “disrupting interaction strength”. MEPRRAAPGVPGWGSREAAGSASAAELVYHLAGALGTELQDLARRFGPEAAAGLVPLVVRALELLEQAAVGPAPDSLQVSAQPAEQELRRLREENERLRRELRAGPQEERALLRQLKEVTDRQRDELRAHNRDLRQRGQETEALQEQLQRLLLVNAELRHKLAAMQTQLRAAQDRERERQQPGEAATPQAKERARGQAGRPGHQHGQEPEWATAGAGAPGNPEDPAEAAQQLGRPSEAGQCRFSREEFEQILQERNEAKAKVFLLKEELAYFQRELLTDHRVPGLLLEAMKVAVRKQRKKIKAKMLGTPEEAESSEDEAGPWILLSDDKGDHPPPPESKIQSFFGLWYRGKAESSEDETSSPAPSKLGGEEEAQPQSPAPDPPCSALHEHLCLGASAAPEA [L258A] was tested, and the “effect of a mutation on the interaction” value was “disrupting interaction strength”. MEPRRAAPGVPGWGSREAAGSASAAELVYHLAGALGTELQDLARRFGPEAAAGLVPLVVRALELLEQAAVGPAPDSLQVSAQPAEQELRRLREENERLRRELRAGPQEERALLRQLKEVTDRQRDELRAHNRDLRQRGQETEALQEQLQRLLLVNAELRHKLAAMQTQLRAAQDRERERQQPGEAATPQAKERARGQAGRPGHQHGQEPEWATAGAGAPGNPEDPAEAAQQLGRPSEAGQCRFSREEFEQILQERNELKAKVFLLKEELAYFQRELLTDHRVPGLLLEAMKVAVRKQRKKIKAAMLGTPEEAESSEDEAGPWILLSDDKGDHPPPPESKIQSFFGLWYRGKAESSEDETSSPAPSKLGGEEEAQPQSPAPDPPCSALHEHLCLGASAAPEA [K304A] was tested, and the “effect of a mutation on the interaction” value was “disrupting interaction strength”. MEPRRAAPGVPGWGSREAAGSASAAELVYHLAGALGTELQDLARRFGPEAAAGLVPLVVRALELLEQAAVGPAPDSLQVSAQPAEQELRRLREENERLRRELRAGPQEERALLRQLKEVTDRQRDELRAHNRDLRQRGQETEALQEQLQRLLLVNAELRHKLAAMQTQLRAAQDRERERQQPGEAATPQAKERARGQAGRPGHQHGQEPEWATAGAGAPGNPEDPAEAAQQLGRPSEAGQCRFSREEFEQILQERNELKAKVFLLKEELAYFQRELLTDHRVPGLLLEAMKVAVRKQRKKIKAKALGTPEEAESSEDEAGPWILLSDDKGDHPPPPESKIQSFFGLWYRGKAESSEDETSSPAPSKLGGEEEAQPQSPAPDPPCSALHEHLCLGASAAPEA [M305A] was tested, and the “effect of a mutation on the interaction” value was “disrupting interaction strength”. For MEPRRAAPGVPGWGSREAAGSASAAELVYHLAGALGTELQDLARRFGPEAAAGLVPLVVRALELLEQAAVGPAPDSLQVSAQPAEQELRRLREENERLRRELRAGPQEERALLRQLKEVTDRQRDELRAHNRDLRQRGQETEALQEQLQRLLLVNAELRHKLAAMQTQLRAAQDRERERQQPGEAATPQAKERARGQAGRPGHQHGQEPEWATAGAGAPGNPEDPAEAAQQLGRPSEAGQCRFSREEFEQILQERNELKAKVFLLKEELAYFQRELLTDHRVPGLLLEAMKVAVRKQRKKIKAKMAGTPEEAESSEDEAGPWILLSDDKGDHPPPPESKIQSFFGLWYRGKAESSEDETSSPAPSKLGGEEEAQPQSPAPDPPCSALHEHLCLGASAAPEA [L306A], the “effect of a mutation on the interaction” value was “disrupting interaction strength”.
